Patent US12673971B2, “Amyloid-β aggregation inhibitor, pharmaceutical composition foramyloid-β aggregation disease, and use application of same” (O-FORCE CO., LTD, priority 2020, dated 2026)

Tests used:
[1] = target: T1, Aβ25-35 (Homo sapiens, UniProt P05067); assay: Aggregation inhibition assay (thioflavin T fluorescence); type: biochemical; conditions: 0.1 mM peptide, 0.1 mM Aβ25-35, 0.1 mM ThT, Tris-HCl pH 7.5, 37° C., FIG. 1; for fluorescence intensity of the reaction solution after 8 and 24 hours: vs negative control; for fluorescence intensity of the reaction solution 4 hours after incubation: vs negative control (Aβ25-35 only)
T1 construct: The Aβ25-35 is a peptide constituted by 11 amino acid residues consisting of the 25th to 35th amino acid residues
From the text: An Aβ-derived fragment peptide was used for aggregation of Aβ. Aβ25-35, which has high aggregability, was selected as the fragment peptide. The Aβ25-35 is a peptide constituted by 11 amino acid residues consisting of the 25th to 35th amino acid residues in the full length sequence of human-derived Aβ (GSNKGAIIGLM (SEQ ID NO: 4), hereinafter also referred to as Ab25-35).
The fluorescent dye thioflavin T (ThT) binds to Ab aggregates and emits strong fluorescence upon binding, and thus the increase or inhibition of aggregation can be determined by measuring the fluorescence intensity. Thus, the inhibition of aggregation of Aβ25-35 by Peptide 1 (GSGNR (SEQ ID NO: 1)) and Peptide 2 (GSGFK (SEQ ID NO: 2)) was checked using ThT.
Specifically, a reaction solution with the following composition was prepared and dispensed into wells such that the amount of the reaction solution per well was 300 μL, and incubated at 37° C., and the change in fluorescence intensity over time was measured using a measurement device (product name Cytation5, manufactured by BioTek) (n=3). The measurement wavelengths were set such that the excitation wavelength (ex) was 444 nm and the emission wavelength (em) was 480 nm. As a control, a reaction solution to which water was added instead of Peptide 1 and Peptide 2 was also measured in the same way.

[2] = tested on: C57BL/6 mice; assay: Y-maze (short-term memory assessment) test; type: in vivo; conditions: 2 μL of 0.5 μg/μL Aβ25-35 and 2 μL of 0.25 μg/μL Peptide 2 into hippocampal CA1; days 11, 27 and 39; vs negative control group (Aβ25-35 only), FIG. 4
Method: In this example, 2 μL of 0.5 μg/μL Aβ25-35 and 2 μL of 0.25 μg/μL Peptide 2 were directly administered using a micro syringe to the CA1 area of the hippocampus of the brain of the administration group of C57BL/6 mice (7 to 13 months old mice) (n=3). In a similar manner, 2 μL of 0.5 μg/μL Aβ25-35 was directly administered using a micro syringe to the CA1 area of the hippocampus of the brain of the negative control group of C57BL/6 mice (n=3). Neither 2 μL of Aβ25-35 nor Peptide 2 was administered to the positive control group of C57BL/6 mice (n=3). Each group was then given a Y-maze (short-term memory assessment) test on days 11, 27, and 39 after administration, and an object recognition test over 3 days starting from day 49. • Administration group (7 months old): Aβ25-35(+)/GSGFK(+) • Negative control group (7 months old): Aβ25-35(+)/GSGFK(−) • Positive control group (13 months old): Aβ25-35(−)/GSGFK(−)
The Y-maze test was conducted in a general manner under the following conditions. That is to say, mice were placed such that their noses faced the wall at an end of one particular arm among the three arms. The mice were allowed to move freely for 10 minutes, and their behavior was captured on a monitor of an analyzer (product name: Time YM1, manufactured by O'hara & Co., Ltd.) to calculate the alternation behavior rate (alternation behavior (%)).

[3] = target: T1, Aβ25-35; assay: ThT fluorescence of the solutions administered to the mouse groups; type: biochemical; conditions: 0.5 μg/μL Aβ25-35 and 0.25 μg/μL Peptide 2 mixed in equal amounts, 37° C., day 11, vs Aβ25-35 solution, FIG. 3
Method: In parallel with the administration to the mice in each group, the fluorescence intensity was measured for the solutions administered to each group. Specifically, a mixed solution obtained by mixing 0.5 μg/μL Aβ25-35 and 0.25 μg/μL Peptide 2 in equal amounts, which was the same as that administered to the administration group, and a 0.5 μg/μL Aβ25-35 solution, which was the same as that administered to the negative control group, were each added in an amount of 100 μL per well, and 10 μL of 1 mmol/L ThT was further added to the well immediately before measurement. These reaction solutions were each reacted at 37° C., and the fluorescence intensity was measured as in Example 1 above.

[4] = tested on: C57BL/6 mice; assay: Object recognition test (ORT); type: in vivo; conditions: administration group Aβ25-35(+)/GSGFK(+), day 52 (test over 3 days from day 49), FIG. 6
Method: In this example, 2 μL of 0.5 μg/μL Aβ25-35 and 2 μL of 0.25 μg/μL Peptide 2 were directly administered using a micro syringe to the CA1 area of the hippocampus of the brain of the administration group of C57BL/6 mice (7 to 13 months old mice) (n=3). In a similar manner, 2 μL of 0.5 μg/μL Aβ25-35 was directly administered using a micro syringe to the CA1 area of the hippocampus of the brain of the negative control group of C57BL/6 mice (n=3). Neither 2 μL of Aβ25-35 nor Peptide 2 was administered to the positive control group of C57BL/6 mice (n=3). […]
The object recognition test (ORT) from day 49 was conducted as follows. […] For each group, the speed of movement of the mice in the cage was measured, as well as the percentage (%) of time they stayed in the center region of the cage (the inner region being at least 7.5 cm away from a side wall of the cage).
After one day, two identical objects were placed in the cage and the mice were allowed to explore freely for one hour (sample phase). […] Also, the approach time of the mice to each object was measured in each of the sample and test phases. The percentage of the exploration time for the object on the right side with respect to the total exploration time was then determined (100× right side exploration time/total exploration time (%)).

[5] = target: T1, Aβ25-35; assay: Concentration assay (ThT fluorescence, varied final peptide concentration); type: biochemical; conditions: for fluorescence intensity compared with the negative control: 37° C.
Method: The concentrations of Peptide 1 (GSGNR (SEQ ID NO: 1)) and Peptide 2 (GSGFK (SEQ ID NO: 2)) with respect to Aβ25-35 were checked. Unless otherwise indicated, measurements were performed according to (2) above.
First, as for Peptide 2 (GSGFK (SEQ ID NO: 2)), 200 μL of mixed solution with the composition shown in Table 2 below was added per well, 10 μL of 2 mmol/L ThT was further added to the well immediately before measurement, and this reaction solution was incubated at 37° C. The change in fluorescence intensity 4 hours after the start of measurement was measured using the above-mentioned measurement device (n=3). Furthermore, reaction solutions with the following composition but with different final concentrations of Peptide 2 were also measured in the same way. As a negative control, a reaction solution with the following composition to which neither Peptides 1 nor 2 was added was also measured in the same way.
Next, as for Peptide 1 (GSGNR (SEQ ID NO: 1)), 200 μL of mixed solution with the composition shown in Table 2 above was added per well, 10 μL of 2 mmol/L ThT was further added to the well immediately before measurement, and this reaction solution was incubated at 37° C. The change in fluorescence intensity 8 hours after the start of measurement was measured using the above-mentioned measurement device (n=6). Furthermore, reaction solutions with the composition above but with different final concentrations of Peptide 1 were also measured in the same way. As a negative control, a reaction solution with the composition above to which neither Peptides 1 nor 2 was added was also measured in the same way.

[6] = target: T2, Aβ25-35 aggregates (Homo sapiens, UniProt P05067); assay: Dissociation of pre-formed Aβ25-35 aggregates (ThT fluorescence); type: biochemical; conditions: 40 μL of 10 mmol/L peptide added to 4000 μL reaction solution with aggregates of 0.1 mM Aβ25-35 (24 h, 37° C.); 4 hr vs 0 hr, FIG. 7
T2 construct: The Aβ25-35 is a peptide constituted by 11 amino acid residues consisting of the 25th to 35th amino acid residues
Method: A reaction solution with the following composition was prepared and incubated at 37° C. for 24 hours to form aggregates of Aβ25-35. After incubation, the fluorescence intensities of the reaction solution with the following composition to which Aβ25-35 was added and a reaction solution to which water was added instead of Aβ25-35 were measured as in Example 1.
Then, 40 μL of 10 mmol/L Peptide 1 or Peptide 2 was added to 4000 μL of the reaction solution in which the aggregates were formed (0 hr), the mixture was incubated at 37° C., and the change in fluorescence intensity over time was measured (n=3). As a control, a reaction solution to which water was added instead of Peptide 1 and Peptide 2 was also measured at 0 hr in the same way. Then, the percentage (%) of decrease in fluorescence intensity after 4 hr was obtained from the fluorescence intensity at 0 hr.

[7] = Peptide 2, with respect to 100 μmol/L Aβ25-35, 4 hours, FIG. 2(A)
[8] = Peptide 1, with respect to 100 μmol/L Aβ25-35, 8 hours, FIG. 2(B)

Substance | fluorescence intensity of the reaction solution after 8 and 24 hours [1] | fluorescence intensity of the reaction solution 4 hours after incubation [1] | alternation behavior rate (short-term memory) [2] | fluorescence intensity of the mixed solution on day 11 [3] | percentage of exploration time for the object on the right side, test phase compared with sample phase [4] | fluorescence intensity compared with the negative control ([5]; Peptide 2, 100 μmol/L Aβ25-35, PBS, 4 hours after start of measurement, FIG. 2(A)) | final concentration at which aggregation was inhibited in a particularly excellent manner [5, 7] | final concentration at which aggregation was more effectively inhibited [5, 7] [µmol/L] | final concentration at which aggregation was significantly inhibited sufficiently [5, 7] [µmol/L] | decrease in fluorescence intensity 4 hours after peptide addition to pre-formed aggregates [6] | fluorescence intensity compared with the negative control ([5]; Peptide 1, 100 μmol/L Aβ25-35, PBS, 8 hours after start of measurement, FIG. 2(B)) | final concentration at which aggregation was inhibited in a particularly excellent manner [5, 8] | final concentration at which aggregation was significantly inhibited sufficiently [5, 8] [µmol/L]
GSGFK [Peptide 2] | did not increase after 8 and 24 hours | slightly increased 4 hours after incubation, but it was well below the negative control | short-term memory is maintained as with the positive control group | did not show an increase in fluorescence intensity | significant increase in the percentage of exploration time for the object on the right side in the test phase | significantly reduced the fluorescence intensity | around 10 μmol/L | ≥ 10 | ≥ 5 | significant decrease in fluorescence intensity |  |  | 
GSGNR [Peptide 1] | decreased significantly compared with the negative control after 8 and 24 hours | had increased 4 hours after incubation |  |  |  |  |  |  |  | significant decrease in fluorescence intensity | significantly reduced the fluorescence intensity | around 10 μmol/L | ≥ 1
